Test results as given in patent US20250320281A1.

What was measured:
Experiment in all cases: cell-based or functional assay
[1] = molecular target: HIV-1 Env of isolate 92UG046 (clade D pseudovirus) (HIV-1)
[2] = molecular target: HIV-1 Env of isolate 93IN905 (HIV-1)
[3] = molecular target: HIV-1 envelope glycoprotein (Env) of isolate 92UG037, clade A (HIV-1)
[4] = molecular target: HIV-1 Env of pseudovirus MGRM-G-001 (clade G) (HIV-1)
[5] = molecular target: HIV-1 Env of pseudovirus MGRM-Chronic-B-010 (HIV-1)
[6] = molecular target: HIV-1 Env of isolate VLGCB3, clade B, on pseudovirus (HIV-1)
[7] = molecular target: HIV-1 Env of isolate MGRM-D-022 (clade D pseudovirus) (HIV-1)
[8] = molecular target: HIV-1 Env of isolate MGRM-Chronic-B-002, clade B, on pseudovirus (HIV-1)
[9] = molecular target: HIV-1 Env of isolate MGRM-D-011 (clade D pseudovirus) (HIV-1)
[10] = molecular target: HIV-1 Env of pseudovirus MGRM-AG-012 (clade CRF_AG) (HIV-1)
[11] = molecular target: HIV-1 Env of pseudovirus MGRM-G-006 (clade G) (HIV-1)
[12] = molecular target: HIV-1 Env of isolate PVO.4 (Acute), clade B, on pseudovirus (HIV-1)
[13] = molecular target: HIV-1 Env of pseudovirus MGRM-AG-002 (clade CRF_AG) (HIV-1)
[14] = molecular target: HIV-1 Env of isolate 6535.3 (Acute), clade B, on pseudovirus (HIV-1)
[15] = molecular target: HIV-1 envelope glycoprotein (Env) of isolate MGRM-C-024 (HIV-1)
[16] = molecular target: HIV-1 NL43 Env (pseudovirus, clade B) (HIV-1)
[17] = molecular target: HIV-1 Env of isolate TRO.11 (subtype B) (HIV-1)
[18] = molecular target: HIV-1 Env of isolate MG RM-D-012 (HIV-1)
[19] = molecular target: HIV-1 envelope glycoprotein (Env) of isolate MGRM-C-010 (HIV-1)
[20] = molecular target: HIV-1 Env of isolate TRJ04551.58 (subtype B) (HIV-1)
[21] = molecular target: HIV-1 Env of isolate CAAN.A2 (subtype B) (HIV-1)
[22] = molecular target: HIV-1 Env of isolate MGRM-A-012 (subtype A) (HIV-1)
[23] = molecular target: HIV-1 Env of isolate APV-17 (HIV-1)
[24] = molecular target: HIV-1 envelope glycoprotein (Env) of isolate MGRM-C-019 (HIV-1)
[25] = molecular target: HIV-1 Env of isolate 92WR009 (HIV-1)
[26] = molecular target: HIV-1 Env of isolate APV-6 (HIV-1)
[27] = molecular target: HIV-1 Env of isolate PVO.4 (subtype B) (HIV-1)
[28] = molecular target: HIV-1 Env of isolate NL43 (subtype B) (HIV-1)
[29] = molecular target: HIV-1 Env of isolate 92WR020 (HIV-1)
[30] = molecular target: HIV-1 Env of isolate 93WR029 (HIV-1)
[31] = molecular target: HIV-1 Env of isolate 92UG005 (clade D), on pseudovirus (HIV-1)
[32] = molecular target: HIV-1 Env of isolate MGRM-Chronic-B-017 (subtype B) (HIV-1)
[33] = molecular target: HIV-1 Env of isolate MG RM-D-004 (HIV-1)
[34] = molecular target: HIV-1 Env of isolate THR0.18 (subtype B) (HIV-1)
[35] = molecular target: HIV-1 93UG077 Env (pseudovirus, clade A) (HIV-1)
[36] = molecular target: HIV-1 Env of isolate MGRM-C-002 (subtype C) (HIV-1)
[37] = molecular target: HIV-1 Env of isolate MGRM-AG-005 (clade AG), on pseudovirus (HIV-1)

Sequence of 5329_C19 (PGT-136) (antibody) (VH): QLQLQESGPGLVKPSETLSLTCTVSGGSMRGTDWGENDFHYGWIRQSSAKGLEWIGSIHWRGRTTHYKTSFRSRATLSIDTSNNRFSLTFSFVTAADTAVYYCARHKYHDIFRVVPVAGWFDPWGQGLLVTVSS
Sequence of 5329_C19 (PGT-136) (antibody) (VL): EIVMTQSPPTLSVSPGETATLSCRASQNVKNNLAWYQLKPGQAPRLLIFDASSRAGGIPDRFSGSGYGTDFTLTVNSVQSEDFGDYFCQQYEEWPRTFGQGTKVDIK
Sequence of 1443_C16 (PG16) (TCN-116) (antibody) (VH): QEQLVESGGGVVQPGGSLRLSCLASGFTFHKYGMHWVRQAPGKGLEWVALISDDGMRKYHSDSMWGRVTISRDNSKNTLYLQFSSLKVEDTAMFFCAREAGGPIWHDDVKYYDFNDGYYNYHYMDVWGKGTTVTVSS
Sequence of 1443_C16 (PG16) (TCN-116) (antibody) (VL): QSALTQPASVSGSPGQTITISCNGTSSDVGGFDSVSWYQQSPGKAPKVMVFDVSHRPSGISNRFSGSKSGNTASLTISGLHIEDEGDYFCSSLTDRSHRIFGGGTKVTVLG

## 2G12 (antibody)
[1]
  IC50 (µg/ml), pseudovirus neutralization: > 50 µg/mL
[2]
  IC50: > 50 µg/mL
[3]
  IC50 (µg/ml), pseudovirus neutralization: 45.2 µg/mL
[4]
  IC50: > 50 µg/mL
[5]
  IC50 (µg/ml), pseudovirus neutralization: 1.5 µg/mL
[6]
  IC50 (µg/ml), pseudovirus neutralization: 7.9 µg/mL
[7]
  IC50 (µg/ml), pseudovirus neutralization: > 50 µg/mL
[8]
  IC50 (µg/ml), pseudovirus neutralization: > 50 µg/mL
[9]
  IC50 (µg/ml), pseudovirus neutralization: 1.5 µg/mL
[10]
  IC50: 1.94 µg/mL
[11]
  IC50: > 50 µg/mL
[12]
  IC50 (µg/ml), pseudovirus neutralization: 0.8 µg/mL
[13]
  IC50: 0.54 µg/mL
[14]
  IC50 (µg/ml), pseudovirus neutralization: 3.85 µg/mL

## 1443_C16 (PG16) (TCN-116) (antibody)
[1]
  IC50 (µg/ml), pseudovirus neutralization: 1.42 µg/mL
[2]
  IC50: 0.25 µg/mL
[3]
  IC50 (µg/ml), pseudovirus neutralization: 0.01 µg/mL
[4]
  IC50: 0.15 µg/mL
[5]
  IC50 (µg/ml), pseudovirus neutralization: 0.01 µg/mL
[6]
  IC50 (µg/ml), pseudovirus neutralization: 0.4 µg/mL
[7]
  IC50 (µg/ml), pseudovirus neutralization: > 50 µg/mL
[8]
  IC50 (µg/ml), pseudovirus neutralization: 3.06 µg/mL
[9]
  IC50 (µg/ml), pseudovirus neutralization: 0.01 µg/mL
[10]
  IC50: 25.1 µg/mL
[11]
  IC50: 2.42 µg/mL
[12]
  IC50 (µg/ml), pseudovirus neutralization: 5.43 µg/mL
[13]
  IC50: 0.03 µg/mL
[14]
  IC50 (µg/ml), pseudovirus neutralization: 36.9 µg/mL

## 2F5 (antibody)
[1]
  IC50 (µg/ml), pseudovirus neutralization: > 50 µg/mL
[2]
  IC50: > 50 µg/mL
[3]
  IC50 (µg/ml), pseudovirus neutralization: 3.24 µg/mL
[4]
  IC50: 4.1 µg/mL
[5]
  IC50 (µg/ml), pseudovirus neutralization: 0.96 µg/mL
[6]
  IC50 (µg/ml), pseudovirus neutralization: > 50 µg/mL
[7]
  IC50 (µg/ml), pseudovirus neutralization: 8.45 µg/mL
[8]
  IC50 (µg/ml), pseudovirus neutralization: 1.25 µg/mL
[9]
  IC50 (µg/ml), pseudovirus neutralization: > 50 µg/mL
[10]
  IC50: 0.33 µg/mL
[11]
  IC50: 1.33 µg/mL
[12]
  IC50 (µg/ml), pseudovirus neutralization: > 50 µg/mL
[13]
  IC50: 0.54 µg/mL
[14]
  IC50 (µg/ml), pseudovirus neutralization: 2.76 µg/mL

## 4E10 (antibody)
[1]
  IC50 (µg/ml), pseudovirus neutralization: 12.2 µg/mL
[2]
  IC50: 1.26 µg/mL
[3]
  IC50 (µg/ml), pseudovirus neutralization: 8.84 µg/mL
[4]
  IC50: 2.04 µg/mL
[5]
  IC50 (µg/ml), pseudovirus neutralization: 1.69 µg/mL
[6]
  IC50 (µg/ml), pseudovirus neutralization: 5.76 µg/mL
[7]
  IC50 (µg/ml), pseudovirus neutralization: 16.9 µg/mL
[8]
  IC50 (µg/ml), pseudovirus neutralization: 2.19 µg/mL
[9]
  IC50 (µg/ml), pseudovirus neutralization: 0.91 µg/mL
[10]
  IC50: 0.86 µg/mL
[11]
  IC50: 1.23 µg/mL
[12]
  IC50 (µg/ml), pseudovirus neutralization: 18.3 µg/mL
[13]
  IC50: 0.8 µg/mL
[14]
  IC50 (µg/ml), pseudovirus neutralization: 1.23 µg/mL

## 5343_B08 (PGT-135) (antibody)
[15]
  IC50 (µg/mL), pseudovirus neutralization: > 50 µg/mL
[16]
  IC50 neutralization: 6.79 µg/mL
[17]
  IC50 neutralization: 0.03 µg/mL
[18]
  IC50 (µg/mL), pseudovirus neutralization: > 50 µg/mL
[19]
  IC50 (µg/mL), pseudovirus neutralization: > 50 µg/mL
[20]
  IC50 neutralization: > 50 µg/mL
[21]
  IC50 neutralization: 5.15 µg/mL
[22]
  IC50 (µg/mL), pseudovirus neutralization: > 50 µg/mL
[23]
  neutralization IC50: > 50 µg/mL
[24]
  IC50 (µg/mL), pseudovirus neutralization: 0.264 µg/mL
[25]
  IC50: > 50 µg/mL
[26]
  neutralization IC50: > 50 µg/mL
[27]
  IC50 neutralization: > 50 µg/mL
[28]
  IC50 neutralization: 8.03 µg/mL
[29]
  IC50: 0.067 µg/mL
[30]
  IC50: > 50 µg/mL
[31]
  IC50, pseudovirus neutralization: > 10 µg/mL
[32]
  IC50 neutralization: > 50 µg/mL
[33]
  IC50 (µg/mL), pseudovirus neutralization: > 50 µg/mL
[34]
  IC50 neutralization: > 50 µg/mL
[35]
  IC50 neutralization: > 10 µg/mL
[36]
  IC50 neutralization: > 50 µg/mL
[37]
  IC50, pseudovirus neutralization: > 10 µg/mL

## 5329_C19 (PGT-136) (antibody)
[15]
  IC50 (µg/mL), pseudovirus neutralization: > 50 µg/mL
[16]
  IC50 neutralization: > 10 µg/mL
[17]
  IC50 neutralization: 0.073 µg/mL
[18]
  IC50 (µg/mL), pseudovirus neutralization: > 50 µg/mL
[19]
  IC50 (µg/mL), pseudovirus neutralization: > 50 µg/mL
[20]
  IC50 neutralization: > 50 µg/mL
[21]
  IC50 neutralization: > 50 µg/mL
[22]
  IC50 (µg/mL), pseudovirus neutralization: > 50 µg/mL
[23]
  neutralization IC50: > 50 µg/mL
[24]
  IC50 (µg/mL), pseudovirus neutralization: 20.1 µg/mL
[25]
  IC50: > 50 µg/mL
[26]
  neutralization IC50: > 50 µg/mL
[27]
  IC50 neutralization: > 50 µg/mL
[28]
  IC50 neutralization: 27.7 µg/mL
[29]
  IC50: 2.33 µg/mL
[30]
  IC50: > 50 µg/mL
[31]
  IC50, pseudovirus neutralization: > 10 µg/mL
[32]
  IC50 neutralization: > 50 µg/mL
[33]
  IC50 (µg/mL), pseudovirus neutralization: > 50 µg/mL
[34]
  IC50 neutralization: > 50 µg/mL
[35]
  IC50 neutralization: > 10 µg/mL
[36]
  IC50 neutralization: > 50 µg/mL
[37]
  IC50, pseudovirus neutralization: > 10 µg/mL
